Columns and labels:
[1] = molecular target: FITC-labeled MAGEA3 C-terminal degron peptide; assay: fluorescence polarisation; direct binding; protein titrated from 4 µM in two-fold steps against 20 nM FITC peptide; 20 mM Tris pH 7.5, 150 mM NaCl, 5% glycerol, 0.5 mM TCEP, 0.01% Triton; 45 min at room temperature
[2] = molecular target: FITC-labeled CCT5 C-terminal degron peptide (human); assay: as above

DDB1–DCAF12–DDA1 complex (from UniProt Q5T6F0 1-453; Q5T6F0 1-453; Q9BW61 1-102)
Kd [1]: 0.06 µM | Kd [2]: 0.13 µM

From publication PMC11044963, “Probing the CRL4^DCAF12 interactions with MAGEA3 and CCT5 di-Glu C-terminal degrons” (PNAS Nexus, 2024)
